The labels stand for the following.
B1: Transmembrane protein 43 (Homo sapiens), Q9BTV4 (parent)
chain: MAANYSSTSTRREHVKVKTSSQPGFLERLSETSGGMFVGLMAFLLSFYLIFTNEGRALKTATSLAEGLSLVVSPDSIHSVAPENEGRLVHIIGALRTSKLLSDPNYGVHLPAVKLRRHVEMYQWVETEESREYTEDGQVKKETRYSYNTEWRSEIINSKNFDREIGHKNPSAMAVESFMATAPFVQIGRFFLSSGLIDKVDNFKSLSLSKLEDPHVDIIRRGDFFYHSENPKYPEVGDLRVSFSYAGLSGDDPDLGPAHVVTVIARQRGDQLVPFSTKSGDTLLLLHHGDFSAEEVFHRELRSNSMKTWGLRAAGWMAMFMGLNLMTRILYTLVDWFPVFRDLVNIGLKAFAFCVATSLTLLTVAAGWLFYRPLWALLIAGLALVPILVARTRVPAKKLE
B2: Transmembrane protein 43 (Homo sapiens), Q9BTV4 (parent)
chain: B1 chain
partner: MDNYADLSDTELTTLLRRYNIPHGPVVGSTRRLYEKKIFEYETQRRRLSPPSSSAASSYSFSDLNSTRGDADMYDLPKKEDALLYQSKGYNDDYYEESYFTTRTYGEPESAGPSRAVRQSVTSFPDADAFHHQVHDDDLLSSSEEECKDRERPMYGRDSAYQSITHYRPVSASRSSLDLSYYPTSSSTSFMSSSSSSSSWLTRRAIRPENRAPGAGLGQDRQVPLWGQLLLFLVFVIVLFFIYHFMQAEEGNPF

In the first test the parent is B1. The following applies: with sun2_human SUN2, Q9UH99.
sun2_human SUN2, Q9UH99, sequence (Q9UH99 whole entry): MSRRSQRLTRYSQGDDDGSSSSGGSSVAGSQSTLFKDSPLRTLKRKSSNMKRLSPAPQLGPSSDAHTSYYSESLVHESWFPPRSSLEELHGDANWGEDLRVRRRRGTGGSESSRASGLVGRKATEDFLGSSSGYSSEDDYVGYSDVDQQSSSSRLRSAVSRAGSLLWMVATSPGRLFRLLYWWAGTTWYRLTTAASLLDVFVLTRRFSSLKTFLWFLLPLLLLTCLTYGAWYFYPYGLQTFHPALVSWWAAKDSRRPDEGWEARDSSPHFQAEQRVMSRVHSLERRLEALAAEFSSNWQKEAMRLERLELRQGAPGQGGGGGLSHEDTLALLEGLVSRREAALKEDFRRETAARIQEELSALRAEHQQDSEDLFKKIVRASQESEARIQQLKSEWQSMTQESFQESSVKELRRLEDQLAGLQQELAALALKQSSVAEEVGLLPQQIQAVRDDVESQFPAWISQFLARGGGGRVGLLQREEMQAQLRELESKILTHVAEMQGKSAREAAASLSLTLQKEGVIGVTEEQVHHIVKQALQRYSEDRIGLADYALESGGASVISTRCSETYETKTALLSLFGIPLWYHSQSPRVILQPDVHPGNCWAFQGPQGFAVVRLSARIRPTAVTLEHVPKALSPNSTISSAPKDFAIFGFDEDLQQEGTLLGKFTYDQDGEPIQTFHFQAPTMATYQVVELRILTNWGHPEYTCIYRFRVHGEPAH
Regarding E85K, the “effect of a mutation on the interaction” value is “decreasing interaction strength”.
Regarding I91V, the “effect of a mutation on the interaction” value was “decreasing interaction strength”.

Variants of B2 are the subject of a further test. The following applies: with emd_human EMD.
As to E85K, the “effect of a mutation on the interaction” value was “with no effect”.
On the same count and under the same terms, for I91V the value was “with no effect”.

In a further test the parent is B2. The following applies: with emd_human EMD. The source holds these as a separate data set.
Take E85K: the “effect of a mutation on the interaction” value is “decreasing interaction strength”.
The same measure, in the same setting: the result for I91V reads “decreasing interaction strength”.

Source of the values: IntAct's records for PubMed 21391237.
